From PMC3950521 (mBio, 2014)

B1: full-length wild-type LytA (N-acetylmuramoyl-L-alanine amidase, major autolysin of Streptococcus pneumoniae) (enzyme, Streptococcus pneumoniae TIGR4, UniProt P06653 1-318, looked up)
chain: MEINVSKLRTDLPQVGVQPYRQVHAHSTGNPHSTVQNEADYHWRKDPELGFFSHIVGNGCIMQVGPVDNGAWDVGGGWNAETYAAVELIESHSTKEEFMTDYRLYIELLRNLADEAGLPKTLDTGSLAGIKTHEYCTNNQPNNHSDHVDPYPYLAKWGISREQFKHDIENGLTIETGWQKNDTGYWYVHSDGSYPKDKFEKINGTWYYFDSSGYMLADRWRKHTDGNWYWFDNSGEMATGWKKIADKWYYFNEEGAMKTGWVKYKDTWYYLDAKEGAMVSNAFIQSADGTGWYYLKPDGTLADKPEFTVEPDGLITVK
B2: recombinant full-length His-tagged LytA, wt-LytA(N-His6) (enzyme, Streptococcus pneumoniae TIGR4, UniProt P06653 1-318, looked up)
chain: B1 chain

What was measured:
Experiment in all cases: SAXS
[1] = molecular target: choline-binding domain of wt-LytA (LytA^CBD) (Streptococcus pneumoniae TIGR4)
[2] = molecular target: full-length prophage LytA (prophage of Streptococcus pneumoniae Hungary 19A-6)
SAXS = molecular target: the molecule itself

Molecule | stoichiometry N (SAXS) | also measured
choline-binding domain of wt-LytA (LytA^CBD) (domain or fragment) |  | stoichiometry N [1]: 2
full-length prophage LytA (enzyme) |  | stoichiometry N [2]: 2
B1 | 2 | 
B2 | 2 | 
